Biological target: T1, NiV-F wild type expressed on 293T cells (Nipah virus, UniProt Q9IH63)
T1 construct: source: HEK293T, transiently transfected, on cells
Experiment: flow cytometry on cells
Details: one partner purified

B1: mAb92 (antibody, V domains shown)
VH: QSLEESGGRLVTPGTPLTLTCTASGFSLSSYYMMWVRQAPGKGLEWIGIINTGGNAYYASWTKGRFTISKTSTTVDLKITSPTTEDTATYFCARAVPSGAGYSAGGLWGPGTLVTVSS
VL: DQVLTQTPASVEAAVGGTVTIKCQASQSVGFYLSWYQQKPGQPPKLLIYRASTLESGVPSRFKGSGSGTEFTLTISDLECADAATYYCQTNDYLASSAFGGGTEVVVR
notes: also called monoclonal antibody 92
binding result: binds

— doi:10.1101/2022.09.26.507980 (bioRxiv, 2022)
